The target in data set [1] is T1, human c-Met-Fc (c-Met ectodomain, IgG1-Fc fusion) (Homo sapiens, UniProt P08581 25-932). In words: competition; vs 32P-CLN3-T; Dotblot: nitrocellulose filter, 37 C (competition, 30 min); BLI: DPBS, 37 C, Protein A tips, 1:1 fit; ELISA: PBS/1% BSA; flow cytometry: PBS/1% BSA, 4 C, 30 min. Conditions: protein: recombinant; tags: Fc (IgG1); chain copies: 2. A general note: In an ELISA, binding on a coated surface is turned into a signal by an enzyme label.

For data set [2], the target named is T1, human c-Met-Fc (c-Met ectodomain, …). In words: competition; vs 32P-CLN64-T; Dotblot: nitrocellulose filter, 37 C (competition, 30 min); BLI: DPBS, 37 C, Protein A tips, 1:1 fit; ELISA: PBS/1% BSA; flow cytometry: PBS/1% BSA, 4 C, 30 min. Conditions: protein: recombinant; tags: Fc (IgG1); chain copies: 2; 3'-biotin (CLN-F-B, cells).
Data set [3] has the same target. The data set is described as follows: filter binding (dotblot); Dotblot: nitrocellulose filter, 37 C (competition, 30 min); BLI: DPBS, 37 C, Protein A tips, 1:1 fit; ELISA: PBS/1% BSA; flow cytometry: PBS/1% BSA, 4 C, 30 min. Particulars: protein: recombinant; tags: Fc (IgG1); chain copies: 2; label: 32P (dotblot).
Data set [4] has the same target. The data set is described as follows: competition ELISA; competes with immobilized HGF; Fig 2 legend gives 72 nM; Dotblot: nitrocellulose filter, 37 C (competition, 30 min); BLI: DPBS, 37 C, Protein A tips, 1:1 fit; ELISA: PBS/1% BSA; flow cytometry: PBS/1% BSA, 4 C, 30 min. Particulars: protein: recombinant; tags: Fc (IgG1); chain copies: 2; label: 32P (dotblot).

T1 sequence (P08581 25-932): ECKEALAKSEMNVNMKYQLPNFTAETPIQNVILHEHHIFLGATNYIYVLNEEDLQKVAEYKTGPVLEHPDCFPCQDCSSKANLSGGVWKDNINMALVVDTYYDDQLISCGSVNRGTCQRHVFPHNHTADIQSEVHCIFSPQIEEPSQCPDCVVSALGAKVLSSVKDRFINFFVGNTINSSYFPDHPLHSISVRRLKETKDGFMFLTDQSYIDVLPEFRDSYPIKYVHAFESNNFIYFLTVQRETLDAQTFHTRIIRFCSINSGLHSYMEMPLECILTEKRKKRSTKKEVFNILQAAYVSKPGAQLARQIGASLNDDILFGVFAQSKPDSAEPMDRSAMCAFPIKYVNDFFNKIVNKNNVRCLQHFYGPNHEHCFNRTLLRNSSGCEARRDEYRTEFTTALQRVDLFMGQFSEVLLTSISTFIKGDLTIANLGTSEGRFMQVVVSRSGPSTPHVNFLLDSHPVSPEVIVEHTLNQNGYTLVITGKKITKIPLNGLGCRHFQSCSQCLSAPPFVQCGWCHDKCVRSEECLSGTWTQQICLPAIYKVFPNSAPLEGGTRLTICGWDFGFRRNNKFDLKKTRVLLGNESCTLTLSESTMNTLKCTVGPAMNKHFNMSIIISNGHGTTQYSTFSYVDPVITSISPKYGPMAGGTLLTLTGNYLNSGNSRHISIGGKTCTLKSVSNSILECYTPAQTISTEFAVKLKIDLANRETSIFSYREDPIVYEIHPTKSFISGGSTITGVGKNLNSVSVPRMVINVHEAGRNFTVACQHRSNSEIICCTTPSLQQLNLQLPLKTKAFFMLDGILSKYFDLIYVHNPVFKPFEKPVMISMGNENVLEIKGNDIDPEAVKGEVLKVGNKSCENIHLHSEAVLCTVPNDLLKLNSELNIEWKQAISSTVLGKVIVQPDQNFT

B1: CLN-X (ssDNA)
DNA: GGAGGGAAAAGTTATCAGGCATGCGCTAGCCGATCGAATCCCGTAGACATTCCGATCGACGATTAGTTTTGGAGTACTCGCTCC
Turning to B1, in data set [1], the binding result is recorded as “no binding”.

B2: CLN-F (XNA)
DNA: GGAGGGAAAAGTTATCAGGCCGCTAGTTACCAGGTGTAGCTGACCAAGCGGATGTGTGTTGATTAGTTTTGGAGTACTCGCTCC
modifications: 2'-O-methyl purines and 2'-fluoro pyrimidines (mRfY)
In the case of B2, the binding result in data set [2] is reported as “no binding”.

B3: CLN3-T (SL1) (ssDNA)
DNA: GAAAAGTTATCAGGCTGGATGGTAGCTCGGTCGGGGTGGGTGGGTTGGCAAGTCTGATT
For B3, the Kd in data set [3] was 0.1 nM. Also, the IC50 in data set [4] amounted to 74 nM.

What is called Kd is the equilibrium constant for the complex coming apart. Broadly, the IC50 is the concentration at which inhibition is half-maximal.
